Measurements published in patent publication US20150361176A1 (GlaxoSmithKline, published 2015).
Several values for one entry are separate records, joined by “and”; a condition that tells them apart may be missing. Equal entries are not always repeated.

What was measured:
[1] = biological target: T1, human TGF-βRII on cells (SBE-bla HEK 293T cells; A549 cells) (human, UniProt P37173 23-567); assay: cell-based or functional assay
[2] = biological target: T2, recombinant human TGF-β RII/Fc chimera protein (human, UniProt P37173 24-159); assay: SPR Biacore T100, human TGFbRII-FC, 1:1 model
T2 construct: range 24-159; Made in HEK-F cells; Biotinylated where it was put on SA chips, otherwise captured by anti-human IgG; also called human TGFbRII/Fc; hRII-Fc; not shown: Fc region of human IgG1
Experimental: Triplet or doped libraries in separate CDR1, CDR2 and CDR3 pools were subjected to rounds of phage selection as described above against either biotinylated human TGF-β RII/Fc antigen over 4 rounds in concentrations of 10 nM, 1 nM, 100 pM and 20 pM respectively, or two rounds of selection using 20 pM followed by 2 pM antigen. Inserts from phage selections were cloned into the pDOM10 expression vector and supernatants with off rates improved over parent were selected for further study. Domain antibodies were expressed and purified their affinity and bioactivity against human TGF-β RII/Fc antigen tested on the BIACORE™ T100 and in the Cell sensor assay described above (data not shown).
BIACORE™ analysis was carried out using a capture surface on a CM4 chip. Anti-human IgG was used as the capturing agent and coupled to a CM4 biosensor chip by primary amine coupling. The Antigen molecule fused to the human Fc was captured on this immobilised surface to a level from 250 to 300 resonance units and defined concentrations of Domain antibodies diluted in running buffer were passed over this captured surface. An injection of buffer over the captured antigen surface was used for double referencing. […] All runs were carried out at 25° C. using HBS-EP buffer as running buffer. Data were generated using the BIACORE™ T100 and fitted to the 1:1 binding model inherent to the software.

[3] = biological target: T1, human TGF-βRII on cells (SBE-bla HEK …); assay: cell-based or functional assay; remark: listed apart in the source
[4] = biological target: T2, recombinant human TGF-β RII/Fc chimera …; assay: SPR Biacore T200, receptor-Fc captured by anti-human IgG, dAb as analyte, 1:1 model
Experimental: (§1) Anti-human IgG was immobilised on a Biacore CM4 chip by primary amine coupling according to the manufacturer's instructions. Human TGF-β RII/Fc, cynomolgus TGF-β RII/Fc or human Fc fragment were captured on this surface. Domain antibodies were passed over the two captured receptors at 3 concentrations of 100, 10 and 1 nM (DOM23h-439 dAbs) or 100, 25 and 6.25 nM (DOM23h-271 dAbs). Only the 100 nM concentration of each dab was passed over human Fc fragment to confirm specificity of binding to the extracellular TGF-β RII domain. An injection of buffer over the captured antigen surface was used for double referencing. […] All runs were carried out at 25° C. using HBS-EP buffer as running buffer. Data were generated using the BIACORE™ T200 and fitted to the 1:1 binding model inherent to the software. […] The DOM23h-271 dAbs and the DOM23h-439 lineages were run in separate experiments.

cynomolgus TGF-β RII/Fc = biological target: T3, cynomolgus TGF-β RII/Fc (cynomolgus); assay: as above
T3 construct: extracellular domain; also called Cyno TGFBRII; Cyno TGFbRII
Experimental: as §1

T1 sequence (P37173 23-567): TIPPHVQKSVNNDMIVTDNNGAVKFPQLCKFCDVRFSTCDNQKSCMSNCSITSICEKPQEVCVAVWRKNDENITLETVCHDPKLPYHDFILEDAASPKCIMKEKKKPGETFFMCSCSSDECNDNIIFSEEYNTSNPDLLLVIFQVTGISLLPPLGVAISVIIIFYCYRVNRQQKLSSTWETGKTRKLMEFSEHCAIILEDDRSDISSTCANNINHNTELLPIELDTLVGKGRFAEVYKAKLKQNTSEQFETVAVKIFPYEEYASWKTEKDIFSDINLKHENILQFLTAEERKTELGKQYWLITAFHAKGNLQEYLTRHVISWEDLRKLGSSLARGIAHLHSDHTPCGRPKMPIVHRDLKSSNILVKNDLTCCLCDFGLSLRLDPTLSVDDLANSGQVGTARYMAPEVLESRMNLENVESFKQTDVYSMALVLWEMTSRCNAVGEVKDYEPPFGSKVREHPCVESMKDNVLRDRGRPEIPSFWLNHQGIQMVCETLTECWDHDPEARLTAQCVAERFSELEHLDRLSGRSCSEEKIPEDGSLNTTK
T2 sequence (P37173 24-159 limits assumed, stated change not applied): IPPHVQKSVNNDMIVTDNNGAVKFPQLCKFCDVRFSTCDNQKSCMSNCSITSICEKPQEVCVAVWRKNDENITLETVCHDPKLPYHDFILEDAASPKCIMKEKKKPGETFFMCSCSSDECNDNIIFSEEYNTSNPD

| Binder | IC50 nM, Mean (SBE-bla HEK 293T cell sensor assay, h2) [1] [nM] | Kd [2] | koff [2] | kon [2] | IC50 nM, Mean (SBE-bla HEK 293T cell sensor assay) [3] [nM] | Kd [4] [nM] | koff [4] [s⁻¹] | kon [4] [M⁻¹ s⁻¹] | Kd (cynomolgus TGF-β RII/Fc) [nM] | koff (cynomolgus TGF-β RII/Fc) [s⁻¹] | kon (cynomolgus TGF-β RII/Fc) [M⁻¹ s⁻¹] |
| --- | --- | --- | --- | --- | --- | --- | --- | --- | --- | --- | --- |
| DOM23h-865 (VHH, not shown: small tags and cut ends) VHH: EVQLLESGGGLVQPGGSLRLSCAASGFTFRSYEMTWVRQAPGKGLEWVSKIDPSGRFTYYADSVKGRFTISRDNSKNTLYLQMNSLRAEDTAVYYCAKGRTDLQLFDYWGQGTLVTVSS | 5560 |  |  |  |  |  |  |  |  |  |  |
| DOM23h-271-101 (VHH, human VH dAb from phage display maturation of DOM23h-271-7; not shown: C-terminal FLAG tag from vector pDOM10) VHH: EVQLLESGGGLVQPGGSLRLSCAASGFTFTEYRMWWVRQAPGKGLEWVSAIEPIGNRTYYADSVKGRFTISRDNSKNTLYLQMNSLRAEDTAVYYCAKQIPGRKWTANGRKDYWGQGTLVTVSS |  | 5.4 nM | 0.0201 s⁻¹ | 3.73e+06 M⁻¹ s⁻¹ |  |  |  |  |  |  |  |
| DOM23h-271-130 (DOM23h-271-123 + C-terminal Alanine) (VHH, human VH dAb) VHH: EVQLLESGGGLVQPGGSLRLSCAASGSTFTEYRMWWVRQAPGKGLEWVSAIEPIGHRTYYADSVKGRFTISRDNSKNTLYLQMNSLRAEDTAVYYCAKQAPGEKWARRWDLDYWGQGTLVTVSS |  |  |  |  | 37 | 0.123 | 0.000309 | 2.51e+06 | 0.124 | 0.000324 | 2.61e+06 |
| DOM23h-271-114 (VHH, human VH dAb from phage display maturation of DOM23h-271-7; not shown: C-terminal FLAG tag from vector pDOM10) VHH: EVQLLESGGGLVQPGGSLRLSCAASGFTFTEYRMWWVRQAPGKGLEWVSAIEPIGNRTYYADSVKGRFTISRDNSKNTLYLQMNSLRAEDTAVYYCAKQIPGRKGTANSRFDYWGQGTLVTVSS |  | 6.8 nM | 0.0708 s⁻¹ | 1.04e+07 M⁻¹ s⁻¹ |  |  |  |  |  |  |  |
| DOM23h-271-106 (VHH, human VH dAb from phage display maturation of DOM23h-271-7; also called 271-106a; 271-106b; not shown: C-terminal FLAG tag from vector pDOM10) VHH: EVQLLESGGGLVQPGGSLRLSCAASGFTFTEYRMWWVRQAPGKGLEWVSAIEPIGNRTYYADSVKGRFTISRDNSKNTLYLQMNSLRAEDTAVYYCAKQFPGRKWTANSRSDYWGQGTLVTVSS |  | 3.16 nM and 2.88 nM | 0.0233 s⁻¹ and 0.0195 s⁻¹ | 7.39e+06 M⁻¹ s⁻¹ and 6.77e+06 M⁻¹ s⁻¹ |  |  |  |  |  |  |  |
| DOM23h-271-129 (VHH, expressed from pC10) VHH: EVQLLESGGGLVQPGGSLRLSCAASGSTFTEYRMWWVRQAPGKGLEWVSAIEPIGHRTYYADSVKGRFTISRDNSKNTLYLQMNSLRAEDTAVYYCAKQAPNQRYVARGRLDYWGQGTLVTVSS |  |  |  |  | 22.7 | 0.0741 | 0.000411 | 5.55e+06 | 0.0712 | 0.000427 | 6e+06 |
| DOM23h-271-132 (DOM23h-271-123 + C-terminal Alanine + 64R) (VHH, human VH dAb) VHH: EVQLLESGGGLVQPGGSLRLSCAASGSTFTEYRMWWVRQAPGKGLEWVSAIEPIGHRTYYADSVRGRFTISRDNSKNTLYLQMNSLRAEDTAVYYCAKQAPGEKWARRWDLDYWGQGTLVTVSS |  |  |  |  | 21 | 0.0182 | 0.000222 | 1.22e+07 | 0.0185 | 0.000238 | 1.29e+07 |
| DOM23h-271-131 (DOM23h-271-123 + C-terminal Alanine + 61N) (VHH, human VH dAb) VHH: EVQLLESGGGLVQPGGSLRLSCAASGSTFTEYRMWWVRQAPGKGLEWVSAIEPIGHRTYYANSVKGRFTISRDNSKNTLYLQMNSLRAEDTAVYYCAKQAPGEKWARRWDLDYWGQGTLVTVSS |  |  |  |  | 6.3 | 0.0217 | 0.000136 | 6.26e+06 | 0.0212 | 0.000144 | 6.81e+06 |
| DOM23h-271-133 (DOM23h-271-123 + C-terminal Alanine + 61N64R) (VHH, human VH dAb) VHH: EVQLLESGGGLVQPGGSLRLSCAASGSTFTEYRMWWVRQAPGKGLEWVSAIEPIGHRTYYANSVRGRFTISRDNSKNTLYLQMNSLRAEDTAVYYCAKQAPGEKWARRWDLDYWGQGTLVTVSS |  |  |  |  | 2.4 | 0.00909 | 7.7e-05 | 8.47e+06 | 0.00985 | 8.71e-05 | 8.84e+06 |
| DOM23h-271-123 (VHH, expressed from pC10) VHH: EVQLLESGGGLVQPGGSLRLSCAASGSTFTEYRMWWVRQAPGKGLEWVSAIEPIGHRTYYADSVKGRFTISRDNSKNTLYLQMNSLRAEDTAVYYCAKQAPGEKWARRWDLDYWGQGTLVTVSS |  |  |  |  | 18.3 | 0.102 | 0.000293 | 2.89e+06 | 0.104 | 0.00032 | 3.08e+06 |
| DOM23h-271-105 (VHH, human VH dAb from phage display maturation of DOM23h-271-7; not shown: C-terminal FLAG tag from vector pDOM10) VHH: EVQLLESGGGLVQPGGSLRLSCAASGFTFTEYRMWWVRQAPGKGLEWVSAIEPIGNRTYYADSVKGRFTISRDNSKNTLYLQMNSLRAEDTAVYYCAKQIPGQRWTGNSRFDYWGQGTLVTVSS |  | 2.27 nM and 2.6 nM | 0.00747 s⁻¹ and 0.00798 s⁻¹ | 3.29e+06 M⁻¹ s⁻¹ and 3.07e+06 M⁻¹ s⁻¹ |  |  |  |  |  |  |  |
| DOM23h-271-102 (VHH, human VH dAb from phage display maturation of DOM23h-271-7; not shown: C-terminal FLAG tag from vector pDOM10) VHH: EVQLLESGGGLVQPGGSLRLSCAASGSTFTEYRMWWVRQAPGKGLEWVSAIEPIGHRTYYADSVKGRFTISRDNSKNTLYLQMNSLRAEDTAVYYCAKQIPGRKWTANSRFDYWGQGTLVTVSS |  | 1.64 nM | 0.0153 s⁻¹ | 9.35e+06 M⁻¹ s⁻¹ |  |  |  |  |  |  |  |
| DOM23h-874 (VHH, not shown: small tags and cut ends) VHH: EVQLLESGGGLVQPGGSLRLSCAASGFTFTSYRMWWVRQAPGKGLEWVSVIDSTGSATYYADSVKGRFTISRDNSKNTLYLQMNSLRAEDTAVYYCAKQQAGSAMGEFDYWGQGTLVTVSS | > 925 |  |  |  |  |  |  |  |  |  |  |
| DOM23h-866 (VHH, not shown: small tags and cut ends) VHH: EVQLLESGGGLVQPGGSLRLSCAASGFTFSNYWMRWARQAPGKGLEWVSYITPKGDHTYYADSVKGRFTISRDNSKNTLYLQMNSLRAEDTAVYYCAESLHNERVKHFDYWGQGTLVTVSS | > 1760 |  |  |  |  |  |  |  |  |  |  |
| DOM23h-439-25 (VHH, expressed from pC10) VHH: EVQLLESGGGLVQPGGSLRLSCAASGFTFGTEQMWWVRQAPGKGLEFVSRIDSPGGRTYYADSVKGRFTISRDNSKNTLYLQMNSLRAEDTAVYYCAKRRPTGVSGTFYDYWGQGTLVTVSS |  |  |  |  | 4 | 0.0817 | 0.000634 | 7.77e+06 | 0.304 | 0.00273 | 8.99e+06 |
| DOM23h-439-40 (DOM23h-439-25 + C-terminal Alanine) (VHH, human VH dAb) VHH: EVQLLESGGGLVQPGGSLRLSCAASGFTFGTEQMWWVRQAPGKGLEFVSRIDSPGGRTYYADSVKGRFTISRDNSKNTLYLQMNSLRAEDTAVYYCAKRRPTGVSGTFYDYWGQGTLVTVSS |  |  |  |  | 14 | 0.104 | 0.00139 | 1.34e+07 | 0.366 | 0.00342 | 9.34e+06 |
| DOM23h-439-41 (DOM23h-439-25 + C-terminal Alanine + 48I) (VHH, human VH dAb) VHH: EVQLLESGGGLVQPGGSLRLSCAASGFTFGTEQMWWVRQAPGKGLEFISRIDSPGGRTYYADSVKGRFTISRDNSKNTLYLQMNSLRAEDTAVYYCAKRRPTGVSGTFYDYWGQGTLVTVSS |  |  |  |  | 1.7 | 0.0104 | 0.000187 | 1.81e+07 | 0.0333 | 0.000522 | 1.57e+07 |
| DOM23h-439-42 (DOM23h-439-25 + C-terminal Alanine + 61N) (VHH, human VH dAb) VHH: EVQLLESGGGLVQPGGSLRLSCAASGFTFGTEQMWWVRQAPGKGLEFVSRIDSPGGRTYYANSVKGRFTISRDNSKNTLYLQMNSLRAEDTAVYYCAKRRPTGVSGTFYDYWGQGTLVTVSS |  |  |  |  | 0.7 | 0.0032 | 0.000131 | 4.09e+07 | 0.011 | 0.00041 | 3.72e+07 |
| DOM23h-439-35 (VHH, expressed from pC10) VHH: EVQLLESGGGLVQPGGSLRLSCAASGFTFGTDQMWWVRQAPGKGLEFVSRIDSPGGRTYYANSVKGRFTISRDNSKNTLYLQMNSLRAEDTAVYYCAKRQPAGVSGKYVDYWGQGTLVTVSS |  |  |  |  | 0.5 | 0.00983 | 0.000222 | 2.26e+07 | 0.0291 | 0.000675 | 2.32e+07 |
